Assay results from the supplement of paper PMC12042874.
± gives the uncertainty stated by the source.

assay: amyloid nucleation score (Sup35N fusion, yeast selection) (log enrichment); library NNK2; higher = more nucleation; inactive = no reads after selection
How it was run: (§1)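 The nucleation score is the DiMSum log enrichment of output over input reads, centred on the mode score of non-aggregating sequences. Only sequences with 100 or more input reads were scored, using Illumina sequencing of input and output plasmid inserts. Psi-negative yeast expressing Sup35N fused to peptides of 20 random codons were induced 24 hours with 100 μM copper sulfate and grown 7 days at 30°C on medium lacking adenine and uracil.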

Substance	amyloid nucleation score
LYTSSATHLIRP	inactive
FDMEIFTYGGTSNNFGHCDD	inactive
SDWII	-0.063 ± 0.56
VFSDWVSSKPLRSVVPCFCN	-0.496 ± 1.1
TYPNKADPLFRS	0.008 ± 0.46
LGPLVYFLFVNIPNQGFFLC	1.56 ± 0.16
LFYAAEYKLCMEV	-0.857 ± 0.41
MRKMRTMNAQWSWIIVCSFW	0.151 ± 0.63
ITIFTSWPVIMLETVMCYCN	5.32 ± 0.079
VRSWTGPSEVQNCKSEFSGA	0.731 ± 0.28
GYINWSCDRDMFSRTTDFLG	-0.592 ± 0.34
ADQSYLRNCIFWRQMILTRY	-0.193 ± 0.39
FSPLCYSYV	-1.22 ± 1
LFRLSCIALCVGIIIVSDGV	-0.33 ± 0.79
IDSSGEYIVLRGYMYMRFRL	-0.72 ± 0.4
KSSSAVIW	-0.045 ± 0.53
NSKYPGVLYCFYRGFGRRVY	inactive
DHPYTRKFI	-0.311 ± 0.79
GYINEYCCHLRVNGLLRAPG	-0.315 ± 0.5
MAVKRGIHRQADPGITWDTE	5.17 ± 0.082
LINPCVRLWLCNCIFTFESA	7.872 ± 0.027

Substance	amyloid nucleation score
LTRYLLWLLVESGFLGRSGV	-0.21 ± 0.79
ESGVWCKAPFYMSVTLSIHS	-0.487 ± 0.56
LHLEMTEW	inactive
LYMAFREMQSWQHCW	-0.227 ± 0.49
TSLGGWVLERRCLPDAADMR	1.2 ± 0.31
TRGPR	0.76 ± 0.46
DSGLMSFVCNVDPKCVCFVN	7.968 ± 0.075
NDSMDHRQSYWGLNPFVYIV	0.158 ± 0.65
VVVNTYYSGIFMQVFLFL	6.76 ± 0.037
PFYVSRRVCKYAF	-0.301 ± 0.28
TKNACMPRGQGRMAPLRCCL	0.857 ± 0.51
ILSLIYGA	-0.084 ± 0.54
SMICGFKLASHSVG	-0.65 ± 0.45
DCIHCSRTNAADWMGYVFGY	4.82 ± 0.085
WVSSIGGDWGMIYSLLQLYW	0.205 ± 0.46
QIGNVFNRY	-0.283 ± 1
FHGGNFATDWFLWFINWEVA	-0.259 ± 0.65
IEGREGCARDNKGYYTALLL	inactive
SAADQPKWRSTTSCVPSDVS	3.74 ± 0.068
GGYICFQMFFYCVFARNY	1.27 ± 0.082
VMCIG	-0.33 ± 0.41

Substance	amyloid nucleation score
HNGVIVIDCWRRKFHPNVIS	-0.922 ± 1
DSGNDLCDNYPVCWVKFCYC	5.2 ± 0.063
FTCAYA	inactive
ELGVTNLDVDRHIDY	-0.038 ± 1.1
SSDYGIQPCFTTTSLLLLFN	-0.914 ± 0.48
DCMTMINLICNGMPAICRMT	0.445 ± 0.18
EARSGVNGRARSMFLIGRYS	-0.262 ± 0.63
PLVEDLRSIYLVRCSAYLQR	0.593 ± 0.33
NFSSWSER	-0.885 ± 0.54
LRVVSES	-0.599 ± 0.35
VTYEIVLWSWIKDVVHKLLR	-0.483 ± 0.48
SRVIVGLWYDGRVKPLELCM	0.342 ± 0.62
IVLQSGR	-1.12 ± 0.63
KSGGDDLESSWRCWASMGLM	0.182 ± 0.31
IFNWECMDAFFSLK	inactive
LKRGYSFMRCLGVWRFQEPD	-0.158 ± 0.25
MFRGVQN	0.899 ± 0.53
FWCYELDNPDGYLIFLHQPV	inactive
IIVFV	0.086 ± 0.74

assay: amyloid nucleation score (Sup35N fusion, yeast selection) (log enrichment); library NNK3; higher = more nucleation; inactive = no reads after selection
How it was run: as §1

Substance	amyloid nucleation score
MTRCLSFWTRSQVLYFCWKL	inactive
AYWCG	inactive
HSGETIYKVWMMGSRTEIAW	inactive
IRAYTDNDSNLSEFGVFTLV	inactive
NENPDNYLRIAVWTTFFSFC	1.57 ± 0.095
YIGTYLLMSYGDSRPRKEMR	1.47 ± 0.088
FNLSVINSRGQLECVLNPVK	inactive
HMIRAVFLSCMSASILVTIK	-0.366 ± 0.53
TFALFLGWIMPTSGGDTGYY	0.037 ± 0.39
SYCATCHIPRENMSLQCVME	1.3 ± 0.1
LGMVYICYYISVIVDPYSYS	0.246 ± 0.25
KATLRCCEPYVNDMVVANLK	inactive
RGNKTI	inactive
LLVVNNCIYGMVKRSIGYD	2.13 ± 0.07
TYPTYRVWVEEQCRLYDTNR	inactive
ISVLERLGYMFVSRHMLLVW	inactive
AGAGLNKLSVLTVTTLLMIL	inactive
ITFNRSSSKNCSQKVKGRTL	inactive
NAEVALDHSSDLDS	inactive
INSLFLRERICRVRCPGFAS	inactive

Substance	amyloid nucleation score
DSLIVCTVPHGLDVVSTRRV	inactive
KAPRMVLLRSGIVMLAHSEN	inactive
VMAHFWRGKLLRSYVDRWRG	inactive
RVSSGSIVTRQHDLN	inactive
SILLVFHFKANVCLVFT	inactive
WPANGMSRLVNRL	inactive
VQISIDKAWMRTSTCSIGSK	inactive
YYLCVVPLRLLGRCASWSFG	inactive
KTKFVTSLNFTVHFKCWNCD	1.51 ± 0.097
ISCSKLTR	inactive
CKNQHFLSLIGFLYHIDPKR	0.709 ± 0.17
YCVQYVNDRQL	1.85 ± 0.082
KIWYLSIYVYFYVYYLDGSL	inactive
ETYKITLRTCLLATAGLREF	inactive
RSFKWNSECILWVSMLFSM	inactive
ITCANALLCDGSRFSM	0.741 ± 0.16
GSALSSLFQCLLFPLSVSVL	0.49 ± 0.21
RIKSSTYSMSLVGAQ	inactive
YGTSATKRTALFWYDMTKFG	inactive
CVYQLLGLVKMRNIRADGHA	inactive

Substance	amyloid nucleation score
SLLRFSLGSCWTFSPKGNYL	1.87 ± 0.085
GQWELGHFQCKVPYLLSQLL	inactive
LGESMGRHVKRNKSAPERGM	inactive
EYSFSLWSVSPAYTHITYGG	-0.192 ± 0.71
SKNATIQAMFERLVVVIS	inactive
PDHSHHCV	inactive
SCKRPVTVWACDQVRYDRFP	inactive
SLFRFVDECCMNDFRLRLSC	inactive
MYERRSLDKKVHRCYILALT	inactive
SNPGSALDIMGTNQIYPSQH	inactive
FCYSDLNYRWICYSRDVESS	inactive
FLMHSKVTSCGVWSLYFADV	1.44 ± 0.15
MYGLLIKNSYRKRLDLSVSI	inactive
VHVSVCRSKGWHDLWRIKCV	inactive
YCMYMCFSVMAGGGIVTMLW	inactive
SGTSFISTKFSISLSIWLTA	inactive
WREAICLLICTIITVPWVNW	inactive
DTFACCPRWNLCGENTLPYI	2.33 ± 0.06
RVVNFFVGVNTNEAMFKRSV	2.71 ± 0.067
